{"source": "paper PMC12295664", "key": {"[1]": {"molecular_target": "F-actin of rabbit psoas ghost muscle fibers (rabbit (endogenous in psoas muscle fibers)) (UniProt P68135)", "assay": "reconstitution of ghost muscle fibers, washing, SDS-PAGE densitometry; single rabbit psoas ghost fibers (F-actin held in the fiber) incubated with troponin, tropomyosin and S1 at 1.0–2.5 mg/mL in 50 mM KCl, 3 mM MgCl2, 1 mM DTT, 6.7 mM K,Na–phosphate pH 7.0; unbound protein washed off; 5–10 fibers on SDS-PAGE, bands quantified with calibration curves; average molar ratios to actin"}, "[2]": {"molecular_target": "AEDANS–S1 (myosin subfragment-1 labeled with 1,5-IAEDANS at Cys707)", "assay": "polarized fluorescence of AEDANS-S1 in ghost fibers", "conditions": "read off a plot"}, "[3]": {"conditions": "scale: mol actin per mol tropomyosin"}, "[4]": {"conditions": "S1 (no nucleotide), Actin + Tpm + Tn, - Ca2+, parent: est. 0.26"}, "[5]": {"conditions": "S1 + ADP, Actin + Tpm + Tn, + Ca2+, parent: est. 0.17"}, "[6]": {"conditions": "S1 + ADP, Actin + Tpm + Tn, - Ca2+, parent: est. 0.27"}, "[7]": {"conditions": "S1 + ATP, Actin + Tpm + Tn, - Ca2+, parent: est. 0.46"}, "[8]": {"conditions": "S1 + Tpm, no troponin, no nucleotide, parent: est. 0.16"}, "[9]": {"conditions": "S1 (no nucleotide), Actin + Tpm + Tn, + Ca2+, parent: est. 0.16"}, "[10]": {"conditions": "S1 (no nucleotide), Actin + Tpm + Tn, - Ca2+, parent: est. 0.14"}, "[11]": {"conditions": "S1 + ADP, Actin + Tpm + Tn, + Ca2+, parent: est. 0.16"}, "[12]": {"conditions": "S1 + ADP, Actin + Tpm + Tn, - Ca2+, parent: est. 0.18"}, "[13]": {"conditions": "S1 + ATP, Actin + Tpm + Tn, + Ca2+, parent: est. 0.46"}, "[14]": {"conditions": "S1 + ATP, Actin + Tpm + Tn, - Ca2+, parent: est. 0.36"}}}
{"substance": "wild-type β-tropomyosin (human TPM2) with N-terminal Met–Ala–Ser extension (natural protein)", "values": [{"measurement": "stoichiometry N", "setting": "[1]; [3]", "value": 6.9}]}
{"substance": "α-tropomyosin (rat TPM1) K168E with N-terminal Met–Ala–Ser extension (natural protein)", "values": [{"measurement": "stoichiometry N", "setting": "[1]; [3]", "value": 6.9}]}
{"substance": "α-tropomyosin (rat TPM1) R167H with N-terminal Met–Ala–Ser extension (natural protein)", "values": [{"measurement": "stoichiometry N", "setting": "[1]; [3]", "value": 6.9}]}
{"substance": "β-tropomyosin (human TPM2) Q147P with N-terminal Met–Ala–Ser extension (natural protein)", "values": [{"measurement": "stoichiometry N", "setting": "[1]; [3]", "value": 6.9}]}
{"substance": "γ-tropomyosin (Tpm3.12, human TPM3) E173A with N-terminal Met–Ala–Ser extension (natural protein)", "values": [{"measurement": "stoichiometry N", "setting": "[1]; [3]", "value": 6.9}]}
{"substance": "wild-type γ-tropomyosin (Tpm3.12, human TPM3) with N-terminal Met–Ala–Ser extension E173A", "values": [{"measurement": "other: N (relative number of disordered fluorophores)", "setting": "[2]; S1 (no nucleotide), Actin + Tpm + Tn, + Ca2+, parent: est. 0.17", "value": 0.1, "unit": "rel. units"}, {"measurement": "other: N (relative number of disordered fluorophores)", "setting": "[2]; [4]", "value": 0.1, "unit": "rel. units"}, {"measurement": "other: N (relative number of disordered fluorophores)", "setting": "[2]; [5]", "value": 0.13, "unit": "rel. units"}, {"measurement": "other: N (relative number of disordered fluorophores)", "setting": "[2]; [6]", "value": 0.13, "unit": "rel. units"}, {"measurement": "other: N (relative number of disordered fluorophores)", "setting": "[2]; S1 + ATP, Actin + Tpm + Tn, + Ca2+, parent: est. 0.18", "value": 0.28, "unit": "rel. units"}, {"measurement": "other: N (relative number of disordered fluorophores)", "setting": "[2]; [7]", "value": 0.35, "unit": "rel. units"}, {"measurement": "other: N (relative number of disordered fluorophores)", "setting": "[2]; [8]", "value": 0.15, "unit": "rel. units"}]}
{"substance": "troponin (rabbit skeletal muscle troponin complex) (from UniProt P02586 1-160; P02643 1-182)", "values": [{"measurement": "stoichiometry N", "setting": "[1]; scale: mol actin per mol troponin", "value": 7.5}]}
{"substance": "wild-type β-tropomyosin (human TPM2) with N-terminal Met–Ala–Ser extension E117K", "values": [{"measurement": "other: N (relative number of disordered fluorophores)", "setting": "[2]; S1 (no nucleotide), Actin + Tpm + Tn, + Ca2+, parent: est. 0.40", "value": 0.38, "unit": "rel. units"}, {"measurement": "other: N (relative number of disordered fluorophores)", "setting": "[2]; S1 (no nucleotide), Actin + Tpm + Tn, - Ca2+, parent: est. 0.25", "value": 0.28, "unit": "rel. units"}, {"measurement": "other: N (relative number of disordered fluorophores)", "setting": "[2]; S1 + ADP, Actin + Tpm + Tn, + Ca2+, parent: est. 0.39", "value": 0.39, "unit": "rel. units"}, {"measurement": "other: N (relative number of disordered fluorophores)", "setting": "[2]; S1 + ADP, Actin + Tpm + Tn, - Ca2+, parent: est. 0.28", "value": 0.33, "unit": "rel. units"}, {"measurement": "other: N (relative number of disordered fluorophores)", "setting": "[2]; S1 + ATP, Actin + Tpm + Tn, + Ca2+, parent: est. 0.68", "value": 0.6, "unit": "rel. units"}, {"measurement": "other: N (relative number of disordered fluorophores)", "setting": "[2]; S1 + ATP, Actin + Tpm + Tn, - Ca2+, parent: est. 0.44", "value": 0.53, "unit": "rel. units"}, {"measurement": "other: N (relative number of disordered fluorophores)", "setting": "[2]; S1 + Tpm, no troponin, no nucleotide, parent: est. 0.26", "value": 0.39, "unit": "rel. units"}]}
{"substance": "wild-type α-tropomyosin (Tpm1.1) with N-terminal Met–Ala–Ser extension K168E", "values": [{"measurement": "other: N (relative number of disordered fluorophores)", "setting": "[2]; [9]", "value": 0.17, "unit": "rel. units"}, {"measurement": "other: N (relative number of disordered fluorophores)", "setting": "[2]; [10]", "value": 0.06, "unit": "rel. units"}, {"measurement": "other: N (relative number of disordered fluorophores)", "setting": "[2]; [11]", "value": 0.11, "unit": "rel. units"}, {"measurement": "other: N (relative number of disordered fluorophores)", "setting": "[2]; [12]", "value": 0.23, "unit": "rel. units"}, {"measurement": "other: N (relative number of disordered fluorophores)", "setting": "[2]; [13]", "value": 0.34, "unit": "rel. units"}, {"measurement": "other: N (relative number of disordered fluorophores)", "setting": "[2]; [14]", "value": 0.36, "unit": "rel. units"}]}
{"substance": "γ-tropomyosin (Tpm3.12, human TPM3) E150A with N-terminal Met–Ala–Ser extension (natural protein)", "values": [{"measurement": "stoichiometry N", "setting": "[1]; [3]", "value": 6.9}]}
{"substance": "wild-type α-tropomyosin (Tpm1.1) with N-terminal Met–Ala–Ser extension R167H", "values": [{"measurement": "other: N (relative number of disordered fluorophores)", "setting": "[2]; [9]", "value": 0.14, "unit": "rel. units"}, {"measurement": "other: N (relative number of disordered fluorophores)", "setting": "[2]; [10]", "value": 0.085, "unit": "rel. units"}, {"measurement": "other: N (relative number of disordered fluorophores)", "setting": "[2]; [11]", "value": 0.2, "unit": "rel. units"}, {"measurement": "other: N (relative number of disordered fluorophores)", "setting": "[2]; [12]", "value": 0.24, "unit": "rel. units"}, {"measurement": "other: N (relative number of disordered fluorophores)", "setting": "[2]; [13]", "value": 0.44, "unit": "rel. units"}, {"measurement": "other: N (relative number of disordered fluorophores)", "setting": "[2]; [14]", "value": 0.35, "unit": "rel. units"}]}
{"substance": "wild-type γ-tropomyosin (Tpm3.12, human TPM3) with N-terminal Met–Ala–Ser extension (natural protein)", "values": [{"measurement": "stoichiometry N", "setting": "[1]; [3]", "value": 6.9}]}
{"substance": "wild-type α-tropomyosin (Tpm1.1) with N-terminal Met–Ala–Ser extension (natural protein)", "values": [{"measurement": "stoichiometry N", "setting": "[1]; [3]", "value": 6.9}]}
{"substance": "wild-type β-tropomyosin (human TPM2) with N-terminal Met–Ala–Ser extension R91G", "values": [{"measurement": "other: N (relative number of disordered fluorophores)", "setting": "[2]; S1 (no nucleotide), Actin + Tpm + Tn, + Ca2+, parent: est. 0.27", "value": 0.26, "unit": "rel. units"}, {"measurement": "other: N (relative number of disordered fluorophores)", "setting": "[2]; S1 (no nucleotide), Actin + Tpm + Tn, - Ca2+, parent: est. 0.29", "value": 0.28, "unit": "rel. units"}, {"measurement": "other: N (relative number of disordered fluorophores)", "setting": "[2]; S1 + ADP, Actin + Tpm + Tn, + Ca2+, parent: est. 0.30", "value": 0.28, "unit": "rel. units"}, {"measurement": "other: N (relative number of disordered fluorophores)", "setting": "[2]; S1 + ADP, Actin + Tpm + Tn, - Ca2+, parent: est. 0.32", "value": 0.27, "unit": "rel. units"}, {"measurement": "other: N (relative number of disordered fluorophores)", "setting": "[2]; S1 + ATP, Actin + Tpm + Tn, + Ca2+, parent: est. 0.45", "value": 0.61, "unit": "rel. units"}, {"measurement": "other: N (relative number of disordered fluorophores)", "setting": "[2]; S1 + ATP, Actin + Tpm + Tn, - Ca2+, parent: est. 0.60", "value": 0.38, "unit": "rel. units"}, {"measurement": "other: N (relative number of disordered fluorophores)", "setting": "[2]; S1 + Tpm, no troponin, no nucleotide, parent: est. 0.28", "value": 0.27, "unit": "rel. units"}]}
{"substance": "β-tropomyosin (human TPM2) E117K with N-terminal Met–Ala–Ser extension (natural protein)", "values": [{"measurement": "stoichiometry N", "setting": "[1]; [3]", "value": 6.9}]}
{"substance": "γ-tropomyosin (Tpm3.12, human TPM3) R90P with N-terminal Met–Ala–Ser extension (natural protein)", "values": [{"measurement": "stoichiometry N", "setting": "[1]; [3]", "value": 6.9}]}
{"substance": "wild-type γ-tropomyosin (Tpm3.12, human TPM3) with N-terminal Met–Ala–Ser extension R90P", "values": [{"measurement": "other: N (relative number of disordered fluorophores)", "setting": "[2]; S1 (no nucleotide), Actin + Tpm + Tn, + Ca2+, parent: est. 0.15", "value": 0.2, "unit": "rel. units"}, {"measurement": "other: N (relative number of disordered fluorophores)", "setting": "[2]; [4]", "value": 0.17, "unit": "rel. units"}, {"measurement": "other: N (relative number of disordered fluorophores)", "setting": "[2]; [5]", "value": 0.17, "unit": "rel. units"}, {"measurement": "other: N (relative number of disordered fluorophores)", "setting": "[2]; [6]", "value": 0.16, "unit": "rel. units"}, {"measurement": "other: N (relative number of disordered fluorophores)", "setting": "[2]; S1 + ATP, Actin + Tpm + Tn, + Ca2+, parent: est. 0.32", "value": 0.095, "unit": "rel. units"}, {"measurement": "other: N (relative number of disordered fluorophores)", "setting": "[2]; [7]", "value": 0.1, "unit": "rel. units"}, {"measurement": "other: N (relative number of disordered fluorophores)", "setting": "[2]; [8]", "value": 0.15, "unit": "rel. units"}]}
{"substance": "β-tropomyosin (human TPM2) R91G with N-terminal Met–Ala–Ser extension (natural protein)", "values": [{"measurement": "stoichiometry N", "setting": "[1]; [3]", "value": 6.9}]}
{"substance": "myosin subfragment-1 (S1), lacking regulatory light chains (domain or fragment)", "values": [{"measurement": "stoichiometry N", "setting": "[1]; scale: mol actin per mol S1", "value": 4.1}]}
